B1: POU domain, class 3, transcription factor 4, residues 280 to 335; numbered along this chain, P49335 (parent)
chain: KKRTSIEVSVKGVLETHFLKCPKPAAQEISSLADSLQLEKEVVRVWFCNRRQKEKR

Variants of: B1
Assay: abundance fitness (aPCA) (normalised: wild type 0, dead -1); higher = more abundant; growth selection in yeast, the domain comes from the species named
Settings: Homo sapiens

Abundance fitness: each site, then its substitutions
H17: T -0.464 | Y 0.386 | E -0.172 | P -0.957 | L -0.401 | M -0.019 | I -0.542 | C -0.497 | G -0.662 | N -0.458 | D -1 | S -0.262 | V -0.017 | R -0.845 | W -0.159 | A 0.085
K23: P -0.697 | Y 0.396 | G -0.664 | C 0.218 | M 0.149 | H 0.186 | R 0.118 | F 0.137 | W 0.037 | S 0.17 | Q 0.064 | V -0.225 | N 0.559 | T 0.237 | E 0.142 | D 0.263 | I -0.369
E15: W -1.04 | P -0.659 | H -0.873 | T -0.82 | V -0.756 | K -0.728 | G -0.881 | I -0.368 | C -0.947 | N -0.885 | L -0.645 | D -0.998 | R -0.985 | Q -0.789 | F -0.681 | Y -1.23 | A -0.539 | S -0.845
V10: H -0.133 | C -0.486 | N -0.279 | A 0.393 | R -0.731 | M 0.058 | S -0.587 | E 0.262 | I 0.08 | T -0.21 | G -0.751 | Q -0.193 | L -0.472 | Y -0.503 | K -0.12
G12: K -0.009 | V -0.034 | Q 0.103 | A -0.177 | S 0.298 | D 0.288 | L 0.004 | R -0.219
V8: E 0.623 | K 0.842 | L 0.293 | H 0.07 | G 0.49 | A 0.354 | R 0.362 | D 0.006 | Q 0.405 | N 1.06 | S 0.546 | I 0.04 | P 0.736 | C -0.326 | M 0.527 | W -0.045 | Y 0.231 | T 0.307
K20: W -0.832 | Y -0.788 | R -0.386 | A -0.339 | N -0.475 | Q -0.578 | G -0.69 | I -0.574 | C -0.735 | M -0.812 | P -0.805 | L -0.446 | S -0.479 | V -0.429 | T -0.129 | F -0.344 | H -0.693
C21: D 0.059 | Y -0.898 | N 0.31 | T -0.336 | G -0.724 | P -0.483 | L -0.419 | H -0.533 | R -0.742 | W -0.846 | K -0.725 | S -0.072 | I -0.58 | M -0.723 | A -0.756 | Q 0.265 | V -0.781 | E -0.546
K11: Q 0.14 | V -0.117 | A 0.778 | S -0.498 | G -0.645 | H -0.207 | M 0.17 | D 0.119 | R -0.076
V13: R -0.215 | L -0.02 | A -0.082 | T -0.502 | S -0.038 | W -0.745 | D -0.518 | I -0.235 | Q 0.205 | Y -0.354 | C -0.454 | E -0.182 | M 0.18 | G -0.662 | F -0.315 | H -0.407
L14: A -0.955 | S -0.693 | R -0.792 | M -0.623 | I -0.607 | C -0.563 | Q -0.953 | T -0.537 | G -0.891 | H -0.983 | F -0.887 | Y -1.08 | N -0.564 | V -0.788 | D -0.825

— the Human Domainome abundance scans (Beltran et al. 2025)
